Here are results for one substance from US20220267369A1.

In assay [1] the target is Protein A ligand of MabSelect Sure resin (GE Healthcare, Chicago, IL). Nature of the assay: separation factor on Protein A MabSelect Sure against mAb1; Elute: 20 mM NaAcetate, pH 3.5.
Assay [2] shares this target. Nature of the assay: separation factor on Protein A MabSelect Sure against mAb1; Strip: 100 mM acetic acid.
Assay [3] has the same target. The experiment in a line: separation factor on Protein A MabSelect Sure against mAb1; Equil/wash: 10 mM NaPhosphate, pH 6.5.
Assay [4] has the same target. The experiment in a line: separation factor on protein A resin against mAb3, loading condition.
The target is the same in assay [5]. The experiment in a line: separation factor on Protein A MabSelect Sure against mAb2; High salt wash: 10 mM NaPhosphate, pH 6.5, 0.5M NaCl.
Assay [6] shares this target. The experiment in a line: resin slurry plate partitioning on Protein A MabSelect Sure; Elute: 20 mM NaAcetate, pH 3.5.
Assay [7] shares this target. Nature of the assay: resin slurry plate partitioning on Protein A MabSelect Sure; High salt wash: 10 mM NaPhosphate, pH 6.5, 0.5M NaCl.
Assay [8] shares this target. Nature of the assay: separation factor on Protein A MabSelect Sure against mAb2; Strip: 100 mM acetic acid.
For assay [9] the target is unchanged. Nature of the assay: separation factor on Protein A MabSelect Sure against mAb2; Equil/wash: 10 mM NaPhosphate, pH 6.5.
The target is the same in assay [10]. Nature of the assay: separation factor on Protein A MabSelect Sure against mAb1; High salt wash: 10 mM NaPhosphate, pH 6.5, 0.5M NaCl.
Assay [11] shares this target. Nature of the assay: resin slurry plate partitioning on Protein A MabSelect Sure; Strip: 100 mM acetic acid.
Assay [12] has the same target. The experiment in a line: separation factor on Protein A MabSelect Sure against mAb2; Elute: 20 mM NaAcetate, pH 3.5.
Assay [13] shares this target. Nature of the assay: resin slurry plate partitioning on Protein A MabSelect Sure; Equil/wash: 10 mM NaPhosphate, pH 6.5.

With phospholipase B-like 2 (PLBL2) (enzyme), the log α (log KP PLBL2 - log KP mAb1) is 0 in assay [1], 0 in [2], -2 in [3] and -2 in [10]. Further, the log α (log KP PLBL2 - log KP mAb3) in [4] is -2. Besides, the log α (log KP PLBL2 - log KP mAb2) is -2 in [5], 0 in [8], -2 in assay [9] and -0.3 in assay [12]. Further, the log KP (partition coefficient, bound/free on resin) in [6], in assay [7], in assay [11] and in assay [13] was 0 each time.
